{
  "source": "patent US9068000B2",
  "about": "“Monoclonal antibodies for enhancing or inhibiting insulin-like growth factor-I” (The University of North Carolina at Chapel Hill, priority 2004, dated 2015)",
  "key": {"IGF-I": {"test_system": "IGF-I", "experiment": "IGF-I biologic actions (DNA synthesis, cell migration, protein synthesis)", "type": "cell-based", "protocol": "Cell Replication. Smooth muscle and/or endothelium are plated at relatively low density, 10^4/cm^2 in low serum (0.2%) containing medium. 24 hr after plating, cells are quiesced in 0.2% platelet poor plasma containing medium. 24 hr later the cultures are exposed to increasing concentrations of IGF-I between 0 and 100 ng/ml and the β3 agonists or antagonists. After 48 hr, the cell cultures are stained with trypan blue and the cell number is determined by manual counting. If β3 is occupied by an agonist then there is at least a 2 fold increase in cell number over this time period. Whereas if an antagonist is added there is often less than 20% increase in cell number.\nCell Migration. Confluent quiescent smooth muscle or endothelial cell cultures are wounded with a razor blade as described in Maile L A, Imai Y, Clarke J B, Clemmons D R, J. Biol. Chem., 277:1800-1805 (2002). The wounds are examined to determine that a straight edge has been obtained and there are no grooves in the plate. At least five areas that are correctly wounded are then identified with a color marker. IGF-I is added at concentrations of either 50 or 100 ng/ml and various concentrations of the angonists or antagonists are added to at least duplicate cultures. After 72 hr the number of cells that have migrated at least 50 microns from the wound edge are determined and counted following staining with methylene blue. […]"}, "IGF-I receptor": {"test_system": "IGF-I receptor", "experiment": "Activation of the IGF-I receptor by IGF-I", "type": "cell-based", "source_text": "(§1) Modification of IGF-I actions. […] These assays include but are not totally limited to the following: β3 subunit phosphorylation, β3 binding to SHPS-1, and integrin associated protein (IAP) as a complex, the association of IAP with SHPS-1, SHPS-1 phosphorylation and Shc recruitment to SHPS-1, Shc phosphorylation, stimulation of DNA synthesis and cell replication or cell migration. Ligands that bind to β3 through the cysteine loop domain often induce both conformational changes and β3 phosphorylation. Similarly, stimulation of β3 phosphorylation can induce a conformational change in β3 secondarily. β3 phosphorylation is measured by applying the compound that binds to β3 to smooth muscle and endothelial cells in culture. […] The lysates are either analyzed directly by immunoblotting for β3 to measure […] or immunoprecipitated with an anti β3 antibody and then immunoblotted for phosphotyrosine. Immunoblotting is analyzed following separation of the proteins contained in 30 μl of cell lysate by SDS polyacrylamide gel electrophoresis (SDS-PAGE). […] The amount of phosphorylated β3 is then determined by SDS-PAGE followed by immunoblotting with a monoclonal anti-phosphotyrosine antibody (PY99) (Ling Y, Maile L A, Clemmons D R, Mol Endocrinol, 17:1824-1833 (2003))."}, "β3 phosphorylation": {"test_system": "β3 phosphorylation", "experiment": "β3 phosphorylation, SHP-2 transfer and enhancement of IGF-I receptor activation", "type": "cell-based", "source_text": "as §1"}, "αVβ3 integrin": {"target": "αVβ3 integrin (Homo sapiens, UniProt P05106)", "sequence (P05106 27-788)": "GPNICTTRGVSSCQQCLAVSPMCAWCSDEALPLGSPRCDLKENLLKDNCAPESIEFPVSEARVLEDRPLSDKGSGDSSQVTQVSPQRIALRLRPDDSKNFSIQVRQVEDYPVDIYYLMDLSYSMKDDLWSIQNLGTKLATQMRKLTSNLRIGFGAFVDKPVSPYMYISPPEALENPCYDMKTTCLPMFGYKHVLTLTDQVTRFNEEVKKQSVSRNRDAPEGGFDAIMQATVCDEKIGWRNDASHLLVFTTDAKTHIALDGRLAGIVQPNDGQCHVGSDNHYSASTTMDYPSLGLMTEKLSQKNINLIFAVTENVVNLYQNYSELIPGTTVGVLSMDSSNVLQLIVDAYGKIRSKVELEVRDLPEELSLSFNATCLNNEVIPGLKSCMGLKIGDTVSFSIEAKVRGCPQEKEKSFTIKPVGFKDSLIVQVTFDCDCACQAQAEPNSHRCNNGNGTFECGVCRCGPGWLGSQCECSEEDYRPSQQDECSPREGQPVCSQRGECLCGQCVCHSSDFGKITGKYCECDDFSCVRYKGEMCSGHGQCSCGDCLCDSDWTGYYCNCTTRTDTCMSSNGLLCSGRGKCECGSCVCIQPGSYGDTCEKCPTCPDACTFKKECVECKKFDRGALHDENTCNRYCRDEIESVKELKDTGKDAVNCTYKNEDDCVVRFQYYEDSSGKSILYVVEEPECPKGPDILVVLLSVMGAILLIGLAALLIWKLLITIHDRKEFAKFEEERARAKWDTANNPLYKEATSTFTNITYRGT", "sequence (P06756 31-889 partner limits assumed)": "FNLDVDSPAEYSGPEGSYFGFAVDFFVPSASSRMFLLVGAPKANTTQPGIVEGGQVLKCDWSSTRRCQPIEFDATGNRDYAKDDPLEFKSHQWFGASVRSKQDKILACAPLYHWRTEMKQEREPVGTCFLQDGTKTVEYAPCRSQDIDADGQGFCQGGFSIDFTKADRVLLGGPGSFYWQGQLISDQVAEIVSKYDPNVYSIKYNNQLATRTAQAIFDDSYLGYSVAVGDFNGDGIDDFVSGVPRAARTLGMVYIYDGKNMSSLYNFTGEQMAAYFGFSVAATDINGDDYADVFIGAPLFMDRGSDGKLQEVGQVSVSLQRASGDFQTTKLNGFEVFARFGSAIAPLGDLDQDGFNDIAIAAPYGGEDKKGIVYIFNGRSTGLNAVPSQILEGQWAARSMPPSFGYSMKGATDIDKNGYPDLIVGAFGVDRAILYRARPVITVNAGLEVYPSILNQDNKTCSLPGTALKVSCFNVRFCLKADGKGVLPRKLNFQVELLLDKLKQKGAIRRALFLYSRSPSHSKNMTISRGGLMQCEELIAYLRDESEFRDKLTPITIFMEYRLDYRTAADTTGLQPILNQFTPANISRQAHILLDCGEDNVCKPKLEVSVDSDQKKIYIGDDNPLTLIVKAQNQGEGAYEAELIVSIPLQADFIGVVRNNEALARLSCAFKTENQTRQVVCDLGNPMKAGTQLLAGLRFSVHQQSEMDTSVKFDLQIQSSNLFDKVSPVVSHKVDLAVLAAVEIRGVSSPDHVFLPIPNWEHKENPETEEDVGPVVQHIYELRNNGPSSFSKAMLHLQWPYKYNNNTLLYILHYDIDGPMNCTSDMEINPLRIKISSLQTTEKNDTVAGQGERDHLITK", "sequence (P06756 891-1048 partner limits assumed)": "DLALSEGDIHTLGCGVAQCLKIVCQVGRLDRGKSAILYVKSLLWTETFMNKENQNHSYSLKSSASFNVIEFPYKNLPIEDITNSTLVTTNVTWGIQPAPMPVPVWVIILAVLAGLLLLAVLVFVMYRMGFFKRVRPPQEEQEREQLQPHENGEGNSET", "experiment": "Binding of peptides/ligands to the cysteine loop region of αVβ3", "source_text": "As noted above, the agonists bind to a specific region on the αVβ3 integrin receptor that has not been identified previously as a region that would result in receptor activation. All agonists that we have determined to bind in this region contain a region of sequence that is commonly termed a heparin binding domain. This heparin binding domain is present in 5 ligands that we have found to date that bind to this region of αVβ3. The documentation that they bind to a specific region of αVβ3 has been provided by two types of experiments. First we have a polyclonal antibody that is known to react with this region of αVβ3, which is the region of the β3 subunit that is located between amino acids at positions 177 and 183.\nA more definitive experiment was conducted in which the identical region of the β1 integrin was substituted by mutagenesis for this […] amino acid region within β3. […] Binding assays were then conducted using these ligands."}},
  "note": "No end group written: not given here.",
  "data": [
    {"molecule": "KKQRFRHL (Synthetic IGF-I antagonist) [IGF-I antagonist peptide]", "values": [
      {"measurement": "inhibitory activity on IGF-I actions in biologic assays", "setting": "IGF-I", "result": "inhibitory activity"},
      {"measurement": "inhibition of activation of the IGF-I receptor by IGF-I", "setting": "IGF-I receptor", "result": "approximately 60%"}
    ]},
    {"molecule": "KKQRFRHR (AlphaV beta3 binding sequence from vitronectin)", "values": [
      {"measurement": "stimulation of β3 phosphorylation, SHP-2 transfer to downstream signaling molecules and enhancement of IGF-I receptor activation in response to IGF-I", "setting": "β3 phosphorylation", "result": "full stimulation"}
    ]},
    {"molecule": "cyclized peptide containing this sequence: a cyclized peptide containing the sequence KKQRFRHL (also: cyclized, mode and places not given here)", "values": [
      {"measurement": "inhibitor potency compared with linear KKQRFRHL", "setting": "IGF-I", "result": "more potent inhibitor"}
    ]},
    {"molecule": "heparin binding epidermal growth factor", "values": [
      {"measurement": "binding to αVβ3 / β3 cysteine loop region", "setting": "αVβ3 integrin", "result": "shown to bind"}
    ]},
    {"molecule": "insulin-like binding protein-5 (RKGFYKRK) [IGFBP-5]", "values": [
      {"measurement": "binding to αVβ3 / β3 cysteine loop region", "setting": "αVβ3 integrin", "result": "shown to bind"}
    ]},
    {"molecule": "osteopontin", "values": [
      {"measurement": "binding to αVβ3 / β3 cysteine loop region", "setting": "αVβ3 integrin", "result": "shown to bind"}
    ]},
    {"molecule": "vitronectin", "values": [
      {"measurement": "binding to αVβ3 / β3 cysteine loop region", "setting": "αVβ3 integrin", "result": "shown to bind"}
    ]},
    {"molecule": "connective tissue growth factor (protein) QNCSGPCRCPDEPAPRCPAGVSLVLDGCGCCRVCAKQLGELCTERDPCDPHKGLFCHFGSPANRKIGVCTAKDGAPCIFGGTVYRSGESFQSSCKYQCTCLDGAVGCMPLCSMDVRLPSPDCPFPRRVKLPGKCCEEWVCDEPKDQTVVGPALAAYRLEDTFGPDPTMIRANCLVQTTEWSACSKTCGMGISTRVTNDNASCRLEKQSRLCMVRPCEADLEENIKKGKKCIRTPKISKPIKFELSGCTSMKTYRAKFCGVCTDGRCCTPHRTTTLPVEFKCPDGEVMKKNMMFIKTCACHYNCPGDNDIFESLYYRKMYGDMA", "values": [
      {"measurement": "binding to αVβ3 / β3 cysteine loop region", "setting": "αVβ3 integrin", "result": "shown to bind"}
    ]}
  ]
}
